Experimental data published in the supplement of paper PMC7877785.
± gives the uncertainty stated by the source.

Experiment: self-splicing fitness, log relative to wild type (ln ratio); higher = more splicing; Tetrahymena group I intron in knt gene, E. coli kanamycin selection, DiMSum; sequences stand for … in CUCUCU…GGAGGGAAAAGUUAUCAGGCAUGCACCUGGUAGCUAGUCUUUAAACCAAUAGAUUGCAUCGGUUUAAAAGGCAAGACCGUCAAAUUGCGGGAAAGGGGUCAACAGCCGUUCAGUACCAAGUCUCAGGGGAAACUUUGAGAUGGCCUUGCAAAGGGUAUGGUAAUAAGCUGACGGACAUGGUCCUAACCACGCAGCCAAGUCCUAAGUCAACAGAUCUUCUGUUGAUAUGGAUGCAGUUCACAGACUAAAUGUCGGUCGGGGAAGAUGUAUUCUUCUCAUAAGAUAUAGUCGGACCUCUCCUUAAUGGGAGCUAGCGGAUGAAGUGAUGCAACACUGGAGCCGCUGGGAACUAAUUUGUAUGCGAAAGUAUAUUGAUUAGUUUUGGAGUACUCGUGGUCG
Outline: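 The eight P1ex-region nucleotides of an intron in the knt kanamycin-resistance gene on pET-22b(+) were all randomised and the library put into E. coli BL21(DE3). Six replicate transformations were grown overnight at 37°C or 30°C on LB agar with or without 25 μg/mL kanamycin, together with 100 μg/mL carbenicillin, 50 μM IPTG and 0.2% rhamnose. Colonies were pooled and amplicon-sequenced on an Illumina HiSeq 2500. Fitness from DiMSum is the error-weighted combination of wild-type-normalised replicate fold changes, kanamycin over none.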

| Sequence | self-splicing fitness (ln) (30 °C) | self-splicing fitness (ln) (37 °C) |
| --- | --- | --- |
| CCUAAGCAAUAUUACGGAUG | -2.08 ± 0.082 | -1.16 ± 0.085 |
| CAACAGCAAUAUUACGUAUA | -2.76 ± 0.12 | -1.55 ± 0.11 |
| AAAGAGCAAUAUUACGACUA | -2.38 ± 0.3 | -1.12 ± 0.25 |
| GCGAAGCAAUAUUACGAUUC | -1.46 ± 0.097 | -0.598 ± 0.13 |
| AACUAGCAAUAUUACGACUC | -0.19 ± 0.057 | 0.0401 ± 0.079 |
| CGCAAGCAAUAUUACGCGCA | -1.1 ± 0.086 | -1.46 ± 0.13 |
| AGCGAGCAAUAUUACGUCGU | -3.82 ± 0.43 | -2.18 ± 0.36 |
| UGUGAGCAAUAUUACGCAAA | -3.07 ± 0.37 | -1.8 ± 0.25 |
| AUCUAGCAAUAUUACGGCUA | -3.6 ± 0.28 | -2.4 ± 0.23 |
| CGUCAGCAAUAUUACGAGCC | -2.25 ± 0.48 |  |
| UGAUAGCAAUAUUACGUAUA | -1.17 ± 0.18 | -1.53 ± 0.19 |
| AUUCAGCAAUAUUACGAGGG | -2.42 ± 0.26 | -1.42 ± 0.34 |
| UUUUAGCAAUAUUACGCCAA | -2.27 ± 0.35 | 0.0505 ± 0.22 |
| UACCAGCAAUAUUACGUCGA | -0.651 ± 0.073 | -0.0658 ± 0.085 |
| GGUUAGCAAUAUUACGAGUC | -3 ± 0.39 | -1.16 ± 0.23 |
| CGGAAGCAAUAUUACGCAUU | -3.52 ± 0.3 | -2.98 ± 0.29 |
| GGGUAGCAAUAUUACGCCUA | 0.113 ± 0.12 | -0.00829 ± 0.14 |
| UUGCAGCAAUAUUACGCUGC | -3.93 ± 0.29 | -2.97 ± 0.38 |
| GCACAGCAAUAUUACGUCUG | -2.53 ± 0.1 | -1.27 ± 0.11 |
| UGCGAGCAAUAUUACGACAA | -1.55 ± 0.3 | -0.809 ± 0.2 |
| GUUGAGCAAUAUUACGGUGA |  | -2.78 ± 0.44 |
| CGCUAGCAAUAUUACGAGAG | -3.41 ± 0.24 | -2.81 ± 0.38 |
| ACAGAGCAAUAUUACGCAAG | -3.99 ± 0.39 | -2.33 ± 0.25 |
| UAUGAGCAAUAUUACGGAAA | -1.13 ± 0.49 |  |
| AUAAAGCAAUAUUACGGGUA | -0.752 ± 0.082 | -1.06 ± 0.1 |

| Sequence | self-splicing fitness (ln) (30 °C) | self-splicing fitness (ln) (37 °C) |
| --- | --- | --- |
| AGCUAGCAAUAUUACGGGCG | -0.507 ± 0.098 | -0.799 ± 0.15 |
| ACCCAGCAAUAUUACGGGCA | 0.0145 ± 0.067 | -0.0091 ± 0.077 |
| CAUAAGCAAUAUUACGCUUC | -2.57 ± 0.27 | -2.19 ± 0.3 |
| UCCCAGCAAUAUUACGGCAG | -4.36 ± 0.29 | -2.58 ± 0.2 |
| AGUUAGCAAUAUUACGCACU | -1.6 ± 0.26 | -1.09 ± 0.23 |
| CAUUAGCAAUAUUACGGCGG | 0.0154 ± 0.093 | 0.252 ± 0.12 |
| AGCGAGCAAUAUUACGAGCG | -1.55 ± 0.14 | -0.201 ± 0.14 |
| AUGAAGCAAUAUUACGUGAA | -1.99 ± 0.088 | -0.731 ± 0.12 |
| UCGGAGCAAUAUUACGAAGA |  | -2.3 ± 0.42 |
| UGUCAGCAAUAUUACGUAAU | -1.03 ± 0.08 | -0.593 ± 0.089 |
| UGGCAGCAAUAUUACGGAUC | -2.22 ± 0.24 | -1.99 ± 0.46 |
| GCUUAGCAAUAUUACGAAUG | -1.79 ± 0.1 | -1.33 ± 0.13 |
| CUAAAGCAAUAUUACGUCCU | -3.29 ± 0.24 | -1.92 ± 0.26 |
| AGGUAGCAAUAUUACGCAAC | -3.73 ± 0.042 | -2.61 ± 0.049 |
| CUGGAGCAAUAUUACGCUCA | -3.4 ± 0.36 | -0.5 ± 0.3 |
| AUUUAGCAAUAUUACGUUCG | -1.39 ± 0.11 | -0.0499 ± 0.13 |
| UGUCAGCAAUAUUACGCGGC | -3.06 ± 0.24 | -2.09 ± 0.31 |
| UGGUAGCAAUAUUACGGAGC |  | -0.765 ± 0.31 |
| CGGCAGCAAUAUUACGAGGC | -2.99 ± 0.32 | -2.53 ± 0.49 |
| AGGAAGCAAUAUUACGGGCG | -0.564 ± 0.11 | -0.865 ± 0.15 |
| ACAAAGCAAUAUUACGUUGC | -3.26 ± 0.12 | -2.57 ± 0.16 |
| GAACAGCAAUAUUACGAGGG | -3.29 ± 0.22 | -1.87 ± 0.22 |
| AAACAGCAAUAUUACGUUAU | -2.23 ± 0.072 | -1.22 ± 0.085 |
| CUCUAGCAAUAUUACGCAUU | -4.34 ± 0.39 | -4 ± 0.39 |
| AGCAAGCAAUAUUACGCAGG | -2.95 ± 0.16 | -1.63 ± 0.12 |

| Sequence | self-splicing fitness (ln) (30 °C) | self-splicing fitness (ln) (37 °C) |
| --- | --- | --- |
| CAGAAGCAAUAUUACGGUUG | -1.2 ± 0.069 | -1.08 ± 0.098 |
| GGGUAGCAAUAUUACGAUUU | -0.0881 ± 0.1 | -0.476 ± 0.099 |
| CACGAGCAAUAUUACGUGAG | -4.08 ± 0.19 | -2.38 ± 0.19 |
| CAUUAGCAAUAUUACGGAUA | -2.16 ± 0.12 | -1.42 ± 0.13 |
| AAGGAGCAAUAUUACGUAGU |  | -2.03 ± 0.27 |
| CGACAGCAAUAUUACGGUAC | -4.52 ± 0.36 | -2.09 ± 0.2 |
| GACGAGCAAUAUUACGACAC | -3.03 ± 0.49 | -1.55 ± 0.15 |
| UCAUAGCAAUAUUACGAGGA | -3.42 ± 0.34 | -0.473 ± 0.21 |
| UACUAGCAAUAUUACGGCAU | -1.36 ± 0.095 | -1.28 ± 0.099 |
| CCACAGCAAUAUUACGAGCU | -3.67 ± 0.15 | -2.4 ± 0.15 |
| AUACAGCAAUAUUACGUCUA | -0.606 ± 0.078 | -0.238 ± 0.079 |
| ACAAAGCAAUAUUACGAAGG | -2.52 ± 0.087 | -1.75 ± 0.12 |
| CAUUAGCAAUAUUACGCCGA | -2.32 ± 0.19 | -2.18 ± 0.2 |
| CCUCAGCAAUAUUACGGCAC | -3.55 ± 0.15 | -2 ± 0.17 |
| GAGUAGCAAUAUUACGGGGC | -2.79 ± 0.28 | -1.98 ± 0.33 |
| GUGAAGCAAUAUUACGGCGU | 0.663 ± 0.12 | 0.727 ± 0.15 |
| UCCCAGCAAUAUUACGCUCG | -2.99 ± 0.18 | -2.15 ± 0.29 |
| GCGAAGCAAUAUUACGAAAC | -1.86 ± 0.35 | -0.819 ± 0.44 |
| GCCGAGCAAUAUUACGGAUC | -0.703 ± 0.074 | -0.376 ± 0.11 |
| CACUAGCAAUAUUACGCUCA | -2.66 ± 0.21 | -2.08 ± 0.17 |
| AACCAGCAAUAUUACGGCUC | -1.34 ± 0.1 | -0.82 ± 0.11 |
| GUUCAGCAAUAUUACGGUGU | -0.503 ± 0.05 | 0.262 ± 0.075 |
| GGUAAGCAAUAUUACGACUU | -0.311 ± 0.15 | 0.0617 ± 0.18 |
| CGGCAGCAAUAUUACGUAUG | -1.55 ± 0.048 | -0.303 ± 0.065 |
| UCUCAGCAAUAUUACGGGAG | -2.79 ± 0.2 | -1.4 ± 0.16 |

| Sequence | self-splicing fitness (ln) (30 °C) | self-splicing fitness (ln) (37 °C) |
| --- | --- | --- |
| GAAAAGCAAUAUUACGGAGG | -2.71 ± 0.14 | -1.73 ± 0.18 |
| UUCUAGCAAUAUUACGAUUG | -3.24 ± 0.31 | -1.94 ± 0.21 |
| CCGCAGCAAUAUUACGGCCC | -3.3 ± 0.48 |  |
| GUUUAGCAAUAUUACGAGCG | -1.6 ± 0.12 | -0.465 ± 0.12 |
| GUAGAGCAAUAUUACGAUUU | -1.13 ± 0.12 | -0.037 ± 0.21 |
| UUGGAGCAAUAUUACGGACC |  | -2.55 ± 0.33 |
| UAGUAGCAAUAUUACGGCUG | -0.344 ± 0.061 | -0.0985 ± 0.096 |
| CGCCAGCAAUAUUACGUGUC | -3.34 ± 0.15 | -2.36 ± 0.14 |
| GUGUAGCAAUAUUACGGGAA | -2.77 ± 0.19 | -1.74 ± 0.2 |
| UGUAAGCAAUAUUACGGAUG | -0.704 ± 0.07 | -0.103 ± 0.095 |
| AACGAGCAAUAUUACGCCCG | -1.98 ± 0.32 | -0.148 ± 0.33 |
| UCAGAGCAAUAUUACGUUGC |  | -1.48 ± 0.32 |
| GAAGAGCAAUAUUACGAACA | -2.15 ± 0.23 | -1.54 ± 0.25 |
| AACCAGCAAUAUUACGGUAA | -0.741 ± 0.051 | -0.682 ± 0.058 |
| UGUGAGCAAUAUUACGGUAA | -2.56 ± 0.31 | -2.25 ± 0.3 |
| UACGAGCAAUAUUACGUACG | -3.76 ± 0.23 | -2.34 ± 0.18 |
| GGCAAGCAAUAUUACGAAUA | -1.45 ± 0.079 | -0.797 ± 0.083 |
| AUUGAGCAAUAUUACGACUC | -2.94 ± 0.29 | -1.59 ± 0.27 |
| CGUCAGCAAUAUUACGCGUC | -2.38 ± 0.42 |  |
| CGACAGCAAUAUUACGCGGC | -3.55 ± 0.16 | -2.96 ± 0.26 |
| UAGCAGCAAUAUUACGUUCG | -0.326 ± 0.069 | 0.165 ± 0.091 |
| GAUUAGCAAUAUUACGACGC | 0.277 ± 0.14 | 0.361 ± 0.14 |
| UGAGAGCAAUAUUACGGUUC | -3.4 ± 0.32 | -1.5 ± 0.23 |
